T1: PaqCI Type IIS restriction endonuclease (Paucibacter aquatile, UniProt A0A2N8KYF9 1-510)
T1 sequence: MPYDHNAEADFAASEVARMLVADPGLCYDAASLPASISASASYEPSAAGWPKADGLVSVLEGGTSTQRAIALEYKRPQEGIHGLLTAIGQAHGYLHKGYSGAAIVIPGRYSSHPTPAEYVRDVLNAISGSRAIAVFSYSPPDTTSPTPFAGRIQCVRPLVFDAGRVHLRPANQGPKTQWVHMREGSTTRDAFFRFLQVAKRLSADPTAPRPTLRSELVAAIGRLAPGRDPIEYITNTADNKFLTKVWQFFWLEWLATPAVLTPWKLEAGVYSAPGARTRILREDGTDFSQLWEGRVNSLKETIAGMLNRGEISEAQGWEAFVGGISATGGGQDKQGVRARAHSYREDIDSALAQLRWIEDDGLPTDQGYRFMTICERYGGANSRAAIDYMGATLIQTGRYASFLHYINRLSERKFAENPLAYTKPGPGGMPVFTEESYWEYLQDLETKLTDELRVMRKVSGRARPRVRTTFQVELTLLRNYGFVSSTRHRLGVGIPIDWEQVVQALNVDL


Key:
[1] = biological target: PaqCI, Type IIS restriction endonuclease of Paucibacter aquatile (Paucibacter aquatile); assay: cryo-EM structure; DNA-free PaqCI, 0.1-0.4 mg/ml; 3.0 Å global resolution map, no symmetry imposed; crystallographic model docked
[2] = biological target: PaqCI, Type IIS restriction endonuclease of Paucibacter aquatile (Paucibacter aquatile); assay: crystal structure; DNA-free apo-enzyme; 20 to 25% PEG 3350, 0.2 M magnesium chloride, 0.1 M Bis-Tris pH 5.5; 2.5 Å; two subunits in the asymmetric unit, tetramer by a crystallographic two-fold axis
[3] = biological target: PaqCI, Type IIS restriction endonuclease of Paucibacter aquatile (Paucibacter aquatile); assay: cryo-EM structure; PaqCI with 50 bp DNA duplex (1:1.2 molar ratio) in 10 mM calcium chloride, SEC peak in 30 mM BisTris pH 6.5, 100 mM sodium chloride; 3.15 Å map, no symmetry imposed
[4] = biological target: PaqCI, Type IIS restriction endonuclease of Paucibacter aquatile (Paucibacter aquatile); assay: SEC; DNA-free PaqCI on Superdex 200 10/300 GL; 20 mM HEPES pH 7.5, 150 mM sodium chloride, 5 mM magnesium chloride, 1 mM DTT
[5] = biological target: T1, PaqCI Type IIS restriction endonuclease; assay: SEC co-elution; 10 mM Ca2+; 1:1.2 protein monomer:DNA; SEC/cryo-EM: 30 mM BisTris pH 6.5, 100 mM NaCl; complex formed with 10 mM CaCl2; temperature not stated; settings: protein: recombinant; tags: none (untagged); chain copies: 4; 50 complementary bp; four duplexes per tetramer

stoichiometry N [1]	stoichiometry N [2]	stoichiometry N [3]	stoichiometry N [4]	Molecule	binding result [5]
4	4	4	4	PaqCI, Type IIS restriction endonuclease of Paucibacter aquatile (enzyme)	–
–	–	–	–	50 bp PaqCI target duplex (dsDNA) DNA 1: CCAGTCGGGATCAGCTCTCTTTCTTCCCACCTGCGCCACGCGAGGTACTC DNA 2: GAGTACCTCGCGTGGCGCAGGTGGGAAGAAAGAGAGCTGATCCCGACTGG	binds

Reference: publication PMC10201449, “Structures, activity and mechanism of the Type IIS restriction endonuclease PaqCI”
